Assay results as given in patent publication US20250129166A1 (Five Prime, published 2025).

Target: T1, monovalent hVISTA-ECD (amino acids 32-193 of SEQ ID NO: 1 with a 7xHis tail) (human, UniProt Q9H7M9 33-193)
T1 construct: also called huVISTA-His; human VISTA-ECD
Assay: SPR, mAb on Protein A, 37C, pH 6.0; pH 6.0
Procedure: Binding of several preparations of each of the '029 progeny clones and of the parent '029 antibodies, formatted as IgG1.3 antibodies, to human VISTA at pH 6.0 and 7.4 was measured by Surface plasmon resonance (SPR). SPR analysis was performed to measure koff and KD binding affinity measurements for VISTA Abs at acidic and neutral pHs using a Biacore® T100 instrument (GE Healthcare). Protein A (ThermoFisher Scientific catalog #21181) was diluted to 20 μg/ml in 10 mM sodium acetate pH 4.5 and immobilized onto flow cells of a CM5 biosensor following the manufacturer's amine coupling protocol (GE Healthcare), targeting 2,000 RU immobilization density of Protein A per flow cell. SPR experiments were conducted at 37° C. using PBST (137 mM sodium chloride, 2.7 mM potassium chloride, 10 mM phosphate buffer, 0.05% Tween® 20) running buffer at pH 7.4 and 6.0. Antibodies were diluted to 25 nM in PBST pH 7.4, and were captured across active biosensor flow cells at 5 ul/min for 60 seconds. A concentration series of 50-5 nM monovalent hVISTA-ECD (SEQ ID NO: 325) was prepared in pH 7.4 and 6.0 running buffers, and was injected over the captured antibodies at 40 ul/min to measure association and dissociation. Two 15 second injections of 10 mM glycine pH 1.5 were used to regenerate the Protein A capture surface between assay cycles. Rate constants ka (kₒₙ) and kd (koff) were derived from reference flow cell and 0 nM blank-subtracted sensorgrams, and were fit to a 1:1 binding model in Biacore® T200 Evaluation Software v.2.0. The affinity constant, KD was calculated as the ratio of rate constants koff/kₒₙ for each VISTA antibody.

T1 sequence (Q9H7M9 other isoform, or with tags, fused parts or gaps limits assumed): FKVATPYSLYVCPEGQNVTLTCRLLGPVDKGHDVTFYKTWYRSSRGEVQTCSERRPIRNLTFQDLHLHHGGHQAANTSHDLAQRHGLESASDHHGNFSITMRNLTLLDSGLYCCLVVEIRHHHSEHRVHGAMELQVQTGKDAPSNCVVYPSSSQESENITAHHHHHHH

| Binder | Kd [nM] | koff [s⁻¹] | kon [M⁻¹ s⁻¹] |
| --- | --- | --- | --- |
| P1-072000 (P1-061029_F100fE_V102D) (antibody, human IgG1, kappa, V domains shown, also called P1-72000) VH: EVQLVESGGGLVQPGKSLRLSCAASGFTLDDYAMHWVRQAPGKGLEWVSGINWNSANIGYADSVKGRFTISRDNAKNSLYLQMNSLRTEDTALYYCAKVPGYSGGWIDAEDDWGQGTMVTVSS VL: not shown | 12 | 0.0023 | 200000 |
| P1-072004 (P1-061029_V102D) (antibody, human IgG1, kappa, V domains shown, also called P1-72004) VH: EVQLVESGGGLVQPGKSLRLSCAASGFTLDDYAMHWVRQAPGKGLEWVSGINWNSANIGYADSVKGRFTISRDNAKNSLYLQMNSLRTEDTALYYCAKVPGYSGGWIDAFDDWGQGTMVTVSS VL: not shown | 180 | 0.025 | 140000 |
| P1-072008 (P1-061029_Y32E_F100fE) (antibody, human IgG1, kappa, V domains shown, also called P1-72008) VH: EVQLVESGGGLVQPGKSLRLSCAASGFTLDDEAMHWVRQAPGKGLEWVSGINWNSANIGYADSVKGRFTISRDNAKNSLYLQMNSLRTEDTALYYCAKVPGYSGGWIDAEDVWGQGTMVTVSS VL: not shown | 88 | 0.024 | 270000 |
| P1-071793 (P1-070916_HC_K16R_T84A, FW revertant) (antibody, V domains shown, VH/VL only) VH: EVQLVESGGGLVQPGRSLRLSCAASGFTLEDYAMHWVRQAPGKGLEWVSGINWNSANIGYADSVKGRFTISRDNAKNSLYLQMNSLRAEDTALYYCAKVPGYSGGWIDAEDDWGQGTMVTVSS VL: not shown | 8.1 | 0.0017 | 210000 |
| P1-071769 (P1-068767_HC_K16R_T84A, FW revertant) (antibody, V domains shown, VH/VL only) VH: EVQLVESGGGLVQPGRSLRLSCAASGFTLEDYAMHWVRQAPGKGLEWVSGIDWNSENIGYADSVKGRFTISRDNAKNSLYLQMNSLRAEDTALYYCAKVPGYSGGWIDAEDDWGQGTMVTVSS VL: not shown | 11 | 0.0026 | 240000 |
| P1-071771 (P1-068767_HC_K16R, FW revertant) (antibody, V domains shown, VH/VL only) VH: EVQLVESGGGLVQPGRSLRLSCAASGFTLEDYAMHWVRQAPGKGLEWVSGIDWNSENIGYADSVKGRFTISRDNAKNSLYLQMNSLRTEDTALYYCAKVPGYSGGWIDAEDDWGQGTMVTVSS VL: not shown | 11 | 0.0026 | 250000 |
| P1-071773 (P1-068767_HC_T84A, FW revertant) (antibody, V domains shown, VH/VL only) VH: EVQLVESGGGLVQPGKSLRLSCAASGFTLEDYAMHWVRQAPGKGLEWVSGIDWNSENIGYADSVKGRFTISRDNAKNSLYLQMNSLRAEDTALYYCAKVPGYSGGWIDAEDDWGQGTMVTVSS VL: not shown | 9.8 | 0.0026 | 270000 |
| P1-071787 (P1-070908_HC_K16R_T84A, FW revertant) (antibody, V domains shown, VH/VL only) VH: EVQLVESGGGLVQPGRSLRLSCAASGFTLEDYAMHWVRQAPGKGLEWVSGIDWNSANIGYADSVKGRFTISRDNAKNSLYLQMNSLRAEDTALYYCAKVPGYSGGWIDAEDDWGQGTMVTVSS VL: not shown | 13 | 0.0027 | 210000 |
| P1-071789 (P1-070908_HC_K16R, FW revertant) (antibody, V domains shown, VH/VL only) VH: EVQLVESGGGLVQPGRSLRLSCAASGFTLEDYAMHWVRQAPGKGLEWVSGIDWNSANIGYADSVKGRFTISRDNAKNSLYLQMNSLRTEDTALYYCAKVPGYSGGWIDAEDDWGQGTMVTVSS VL: not shown | 13 | 0.0026 | 210000 |
| P1-071791 (P1-070908_HC_T84A, FW revertant) (antibody, V domains shown, VH/VL only) VH: EVQLVESGGGLVQPGKSLRLSCAASGFTLEDYAMHWVRQAPGKGLEWVSGIDWNSANIGYADSVKGRFTISRDNAKNSLYLQMNSLRAEDTALYYCAKVPGYSGGWIDAEDDWGQGTMVTVSS VL: not shown | 11 | 0.0027 | 240000 |
| P1-071795 (P1-070916_HC_K16R, FW revertant) (antibody, V domains shown, VH/VL only) VH: EVQLVESGGGLVQPGRSLRLSCAASGFTLEDYAMHWVRQAPGKGLEWVSGINWNSANIGYADSVKGRFTISRDNAKNSLYLQMNSLRTEDTALYYCAKVPGYSGGWIDAEDDWGQGTMVTVSS VL: not shown | 8.1 | 0.0017 | 210000 |

The next binders have a lower Kd than those just listed; values first:

| Kd [nM] | koff [s⁻¹] | kon [M⁻¹ s⁻¹] | Binder |
| --- | --- | --- | --- |
| 4.9 | 0.0014 | 290000 | P1-071763 (P1-068761_HC_K16R_T84A, FW revertant) (antibody, V domains shown, VH/VL only) VH: EVQLVESGGGLVQPGRSLRLSCAASGFTLEDEAMHWVRQAPGKGLEWVSGINWNSEEIGYADSVKGRFTISRDNAKNSLYLQMNSLRAEDTALYYCAKVPGYSHGWIDAEDVWGQGTMVTVSS VL: not shown |
| 5 | – | 280000 | P1-071765 (P1-068761_HC_K16R, FW revertant) (antibody, V domains shown, VH/VL only) VH: EVQLVESGGGLVQPGRSLRLSCAASGFTLEDEAMHWVRQAPGKGLEWVSGINWNSEEIGYADSVKGRFTISRDNAKNSLYLQMNSLRTEDTALYYCAKVPGYSHGWIDAEDVWGQGTMVTVSS VL: not shown |
| 5.1 | 0.0016 | 310000 | P1-071767 (P1-068761_HC_T84A, FW revertant) (antibody, V domains shown, VH/VL only) VH: EVQLVESGGGLVQPGKSLRLSCAASGFTLEDEAMHWVRQAPGKGLEWVSGINWNSEEIGYADSVKGRFTISRDNAKNSLYLQMNSLRAEDTALYYCAKVPGYSHGWIDAEDVWGQGTMVTVSS VL: not shown |
| 6.9 | 0.0017 | 250000 | P1-071775 (P1-070868_HC_K16R_T84A, FW revertant) (antibody, V domains shown, VH/VL only) VH: EVQLVESGGGLVQPGRSLRLSCAASGFTLEDEAMHWVRQAPGKGLEWVSGINWNSAEIGYADSVKGRFTISRDNAKNSLYLQMNSLRAEDTALYYCAKVPGYSHGWIDAEDVWGQGTMVTVSS VL: not shown |
| 6.4 | 0.0017 | 270000 | P1-071777 (P1-070868_HC_K16R, FW revertant) (antibody, V domains shown, VH/VL only) VH: EVQLVESGGGLVQPGRSLRLSCAASGFTLEDEAMHWVRQAPGKGLEWVSGINWNSAEIGYADSVKGRFTISRDNAKNSLYLQMNSLRTEDTALYYCAKVPGYSHGWIDAEDVWGQGTMVTVSS VL: not shown |
| 7 | 0.0018 | 260000 | P1-071779 (P1-070868_HC_T84A, FW revertant) (antibody, V domains shown, VH/VL only) VH: EVQLVESGGGLVQPGKSLRLSCAASGFTLEDEAMHWVRQAPGKGLEWVSGINWNSAEIGYADSVKGRFTISRDNAKNSLYLQMNSLRAEDTALYYCAKVPGYSHGWIDAEDVWGQGTMVTVSS VL: not shown |
| 7.7 | 0.0017 | 220000 | P1-071781 (P1-070906_HC_K16R_T84A, FW revertant) (antibody, V domains shown, VH/VL only) VH: EVQLVESGGGLVQPGRSLRLSCAASGFTLEDYAMHWVRQAPGKGLEWVSGINWNSENIGYADSVKGRFTISRDNAKNSLYLQMNSLRAEDTALYYCAKVPGYSGGWIDAEDDWGQGTMVTVSS VL: not shown |
| 7.6 | 0.0017 | 220000 | P1-071783 (P1-070906_HC_K16R, FW revertant) (antibody, V domains shown, VH/VL only) VH: EVQLVESGGGLVQPGRSLRLSCAASGFTLEDYAMHWVRQAPGKGLEWVSGINWNSENIGYADSVKGRFTISRDNAKNSLYLQMNSLRTEDTALYYCAKVPGYSGGWIDAEDDWGQGTMVTVSS VL: not shown |
| 6.7 | 0.0017 | 250000 | P1-071785 (P1-070906_HC_T84A, FW revertant) (antibody, V domains shown, VH/VL only) VH: EVQLVESGGGLVQPGKSLRLSCAASGFTLEDYAMHWVRQAPGKGLEWVSGINWNSENIGYADSVKGRFTISRDNAKNSLYLQMNSLRAEDTALYYCAKVPGYSGGWIDAEDDWGQGTMVTVSS VL: not shown |
| 7.7 | 0.0017 | 220000 | P1-071797 (P1-070916_HC_T84A, FW revertant) (antibody, V domains shown, VH/VL only) VH: EVQLVESGGGLVQPGKSLRLSCAASGFTLEDYAMHWVRQAPGKGLEWVSGINWNSANIGYADSVKGRFTISRDNAKNSLYLQMNSLRAEDTALYYCAKVPGYSGGWIDAEDDWGQGTMVTVSS VL: not shown |
